Results as given in US20240294637A1 (DENDROCYTE BIOTECH, published 2024).

Tests used:
[1] = target: CD300f^L4 expressed in CHO cells (isoform of CD300f which includes the amino acid sequence …) (human) (UniProt Q8TDQ1); assay: flow cytometry MFI ratio, CD300f^L4 against CD300f^S4 CHO transfectants
[2] = target: T1, CD300a on CHO transfectant cell surface (UniProt Q9UGN4 18-299, limits assumed); assay: flow cytometry on CD300a CHO transfectants
T1 construct: whole, on cells; Said to be 'similarly expressed in CHO cells'; also called CD300a transfected cells
T1 sequence (looked up): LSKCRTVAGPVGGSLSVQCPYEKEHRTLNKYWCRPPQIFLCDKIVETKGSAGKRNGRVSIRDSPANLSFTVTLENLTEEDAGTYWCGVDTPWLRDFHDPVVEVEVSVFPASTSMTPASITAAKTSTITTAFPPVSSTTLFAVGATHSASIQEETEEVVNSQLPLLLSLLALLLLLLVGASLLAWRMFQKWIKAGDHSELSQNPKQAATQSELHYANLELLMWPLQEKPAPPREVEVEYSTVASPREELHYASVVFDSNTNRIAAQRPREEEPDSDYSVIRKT

[3] = target: T2, CD300f-Ig fusion protein (recombinant CD300f-Fc protein, Sino Biologicals) (human, UniProt Q8TDQ1 20-156); assay: Bio-Layer Interferometry (BLItz), CD300f-Fc on AHC biosensor, DCR-2 at 8.333, 16.67, 33.33, 66.67 and 0 nM, global 1:1 fit; same value in rows Index 1 to 4
T2 construct: domain: CD300f Ig-like domain; Bought reagent; also called CD300f-Fc recombinant protein; CD300f Ig-like domain; not shown: Ig Fc part (captured by goat anti-human Ig Fc / human IgG Fc capture sensor)
T2 sequence (looked up): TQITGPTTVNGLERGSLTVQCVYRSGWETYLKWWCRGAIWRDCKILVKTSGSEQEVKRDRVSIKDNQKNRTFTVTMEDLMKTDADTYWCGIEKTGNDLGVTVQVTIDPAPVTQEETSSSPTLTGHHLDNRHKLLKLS
Description: (§1) DCR-2 was assessed for affinity for CD300f using a BLItz System (Fortebio, Pall Life Sciences). CD300f-Fc recombinant protein was immobilized to a human IgG Fc capture sensor. A five point dilution series of each mAb was tested for association and dissociation. Kinetic rate constants were estimated using BLItz Pro software with a global fitting 1:1 binding model.
(§2) The kinetics of binding of DCR-2 to CD300f-Fc recombinant protein was determined using Bio-Layer Interferometry analysis on a BLItz System (Fortebio, Pall Life Sciences).

[4] = target: T2, CD300f-Ig fusion protein (recombinant …); assay: Bio-Layer Interferometry (BLItz), CD300f-Fc on AHC biosensor, DCR-2 at 8.333, 16.67, 33.33, 66.67 and 0 nM, global 1:1 fit; same value in rows Index 1 to 4; Kd Error 3.58e-5
Description: as §1, §2

[5] = target: T2, CD300f-Ig fusion protein (recombinant …); assay: Bio-Layer Interferometry (BLItz), CD300f-Fc on AHC biosensor, DCR-2 at 8.333, 16.67, 33.33, 66.67 and 0 nM, global 1:1 fit; same value in rows Index 1 to 4; Ka Error 7.087e3
Description: as §1, §2

B1: Monoclonal antibody DCR-2 (antibody, V domains shown)
VH: MESGGGLVQPGGPLKLSCAASGFGFSGSWMSWVRQAPGKGLEWIGQINPDSSTINYTPSLKDKFIISRDNAKNTLYLQINKVRSEDTALYYCARRGFFEGYSAWFAYWGQGTLVTV
VL: ILMTQTPKFLLVSAGDRVTITCKASQSVSNDVAWYQQKPGQSPSLLIYYASNRNTGVPDRFTGSGYETDFTFTISTVQAEDLAVYFCQQDYTSPWTFGGGTKLEIKR
notes: also called mAb DCR-2
fold difference in binding compared to CD300f^S4 [1]: < 2 fold
binding result [2]: no binding
Kd [3]: 366 pM
koff [4]: 0.000188 s⁻¹
kon [5]: 514000 M⁻¹ s⁻¹
